Here are results for four substances from PMC2113854.

In test [1] the target is EGF/TGF-alpha receptor of normal rat kidney (NRK) cells (170-kD receptor species) (rat (endogenous in NRK)). In words: radioligand binding.
For test [2], the target named is EGF/TGF-alpha receptor of A431 cells (human (endogenous in A431)) (UniProt P00533). The test is described as follows: radioligand binding.

In test [1], “125I-labeled mouse submaxillary gland epidermal growth factor (125I-EGF) (ligand)” gave a specific binding at 0.3 nM ligand, monolayers not treated with TGF-beta (Fig. 2) of 785 cpm/well.
In test [1], “125I-labeled transforming growth factor-alpha (125I-TGF-alpha) (from UniProt P01134 39-88) (ligand)” gave a 125I-TGF-alpha bound with 66 nM TGF-beta (NRK membranes) (fmol/mg protein) of 5.6; a 125I-TGF-alpha bound with 330 nM TGF-beta (NRK membranes) (fmol/mg protein) of 5.6; a 125I-TGF-alpha bound, no competing ligand (NRK membranes) (fmol/mg protein) of 5.4; a Kd, high-affinity sites of 0.2 to 0.3 nM. In test [1], this substance yielded a Kd, low-affinity sites of 2.7 to 2.9 nM and a specific binding at 0.3 nM ligand, cells not treated with TGF-beta (Fig. 1A) of 810 cpm/well.
“mouse submaxillary gland epidermal growth factor (native, unlabeled EGF) (ligand)” displayed a 125I-TGF-alpha bound with 66 nM EGF (A431 membranes) (fmol/mg protein) in test [2] of 140. Also, the 125I-TGF-alpha bound with 66 nM EGF (NRK membranes) (fmol/mg protein) in test [1] is 1.6.
With “transforming growth factor-alpha (native, unlabeled TGF-alpha) (from UniProt P01134 39-88) (ligand)”, in test [1], the 125I-TGF-alpha bound with 66 nM TGF-alpha (NRK membranes) (fmol/mg protein) stood at 1.2.
